Laboratory results taken from the domain aggregation screens of Martell et al. (2025).

Experiment: soluble fraction after stress (log2 fold change); higher = more stays soluble; pooled small domains, quantitative proteomics
Details: stress: pH 4
Summary of the method: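 Aggregation propensity is estimated from the fold change in each domain's soluble amount after acid stress. Pooled small-domain libraries were stressed at pH 4, and higher log2 values mean more stayed soluble.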

Row | Sequence | soluble fraction (log2)
1 | HMHPEQTLEKIVDISAELFAKKGYEQTSIQDILDATGLSKGGLYHHFKSKEEILEAVMQKRVQY | -0.647
2 | HMHPFELNTVTEGQLKRLPFLSDLQIRELLEYRSRYGKMLTLYELKNVEAFDLETISLLVPFIYISEI | -1.44
3 | HMHPKTPDELLALMSEEQRGQIEQLAKLVLMAVSYSGASYYDAVTTMYPRMSEERRRIITHVLNTASP | -0.825
4 | HMHPLFRVVLAGEPNGVGLDDWLTRHEAELINGPSAIGVLTVKIAMGRRSFETVLDEIRADGETIFVEPV | -2.02
5 | HMHPTDMKLTARLEEGAQFVRTQQLSKAIEIFTEVIKLDQNWAEAWNKRATVFYMMGKFKQSQEDIDKVLA | -0.12
6 | HMHPTEKNLTSLLADGSFYMNQNKLETAYDTFTKTIELDPSWAEAWNKRATVLYLMGKYELSQADIDQV | -0.176
7 | HMHPVTGRIGTVTAANGLNLRADSSEYANVVATLGYGVDVTVTGERINGFYPVRVGTLSGYVSADYVSFNS | -0.299
8 | HMHQVHKIDGVKYYLHLVEKGNTLYGISKQYNVSVERIEKANTEALSDGLKENQTLLIPVTSDNKKT | 0.0091
9 | HMHREITGSLAERNGRYTAILNLYDEDGKRRQKSIALGIPVKGNKRKAQAQLEELKRAYSLGLPQ | 0.051
10 | HMHRGTPASIIAAAKQYLTGGQTVELYEREGGPWTFRLRTYLSETPYPEKVRASVEALKPAGVVFLYELQS | -0.112
11 | HMHRIKRRNDTLVSALDSIAGIGAKRKKALLQHFGSVRAIKAVSAEEIAKVEGISPTLANQIFEAL | -0.0221
12 | HMHRTMFYLDVDLAEGQSVKMAVHEDDDPGELAARFADEHQLKSRAMEKLRSVIEENVRLHRRNQ | -0.306
13 | HMHRTRNAERTRAAVLKAAAEVLAERGTGASLARIAEVAGVSKSGLLHHFANREQLIVALLED | -0.462
14 | HMHSIFPVIRSTSFPTKSNDGELFITSDHTAETRIYYALDLGNTYRLIDQKVMNEINLTESLVKETARF | -1.63
15 | HMHSILDDIEGIGPARRKALMRHYMNLDAIKSATVEELAAVPSMNEKSAKAVHNFFHQQKKD | 0.22
16 | HMHSKQRDAIFENLRSRKDHPTAEEIYLSLKPAMPAISLATVYRNLAQLENEGLILRLGSGGSARYDGDT | 0.164
17 | HMHSLGDQVFETIKELIVNNTYQPGELLQIDKLAAEFGVSTTPVREALLRLEGLGLVDIERNKAAVVT | -0.352
18 | HMHSPLLDRYLAEVGWRLRHLSGAQREDILAGLREHIADLESAGVAPEEIVARLGSPESVADAAAGEF | 0.0489
19 | HMHSPTFYVHVVGQVKVPGVYELEVGSRLFDAVIAAGGFKDDADQASVNLARPLSDGEQIVVLKLGDQ | -0.732
20 | HMHTADDFKQLAKQTSNGQLRTRYLALYLFKNGETRTQIATYLGVARGSVNTWVSNYLAHGLEGLQSKP | 0.0388
21 | HMHTSEDLEKLLTRYFQSHESINRQQFEQLSGFTRTTASRRLKALVEAGKLKNIGLHHFPVYKPTEGNF | 0.134
22 | HMHVGVWIMNEKGEILLEQRASNKKVDPNKWARIGGHVDAGEKPIQAIQREILEEIGVKIPLENFIVLET | -0.592
23 | HMHVLAVDEALHKLTELNELHAKIVEMRFFSGMTVQEVADELGVSKRKIESEWTMIKAWLRKELN | -0.916

Row | Sequence | soluble fraction (log2)
24 | HMHVSLSGKIHSELRKLILNGELKAGERLPSEPDLAHELGVSRNSLREAIGLLQREGLLLKKHGIGTFVTD | 0.183
25 | HMHVYQSLVTDRVVPGGGYRTTEAILSTEAWRNTLLEQAKRELIGVRNKYASLTELAKVWTAIDTVT | -0.249
26 | HMHYALTVDFPAALEARIDPAHRAALRGVLAHDPRPSYQSDPERLYGVAFAGKNVKFTVEDGVLTVRKIEE | -0.267
27 | HMHYKLIIFENHTKSTSLDITPEQARQILGVTDYTPEQYEILAEITNRPASYFMDDLVDYYVD | -1.53
28 | HMHYNMNYLENLTKTELFDLAKNKFGLTYAEMERHLSIPEGGARYAIKAEHSKYGSDIKKYLVEFLLE | -0.134
29 | HMIADPAKPDWTTILAPVTTGTTVTHKTFGQGTVTKLDKTKKYLTVSFAAGQKNFVFPNAFIDGFLK | -0.105
30 | HMIADSSSIHQDAKQQLHSYLRTNIQPLMRAGKQLDLKDILHHVTIRKPKLVQQLGMKQVQHMVQVLLD | 0.184
31 | HMIAGHLQEKKGFFYIVLSYPDAAGKRKTKWFPTKLSVKGNKKKAEVMLMDARKTFVPPETPL | 0.207
32 | HMIAITVGSKVRVKAGATFSDGTKPFTEVYNTVYDVQLLSRNGKEARIGIGEQWTGWMYISDLYPADQ | 0.00391
33 | HMIAPQISSGKVNTKELNVRSGPATTFGIVKKLPLNAMVGIFEEKNGWFRIATGQWVSKTYVDL | 0.187
34 | HMIAVLEEGSRFRAINDISGKPFGPEMIIKNGQVIAAGKKILTKPKKLIGKKEGTKFNISGKEYVIKDI | -0.834
35 | HMIAWNFDTMKESLSEMERVDYQEFIKAFLSLELSISDRTILNQVYQDYMDEDDLSLISDELRV | -1.4
36 | HMIDDNTIIQIGDSYSKSIRLLGEPIELKNRSLNQKSYFMAVYDFKGRRYRLFFENDVLFDILRD | -0.486
37 | HMIDELLDPTHRIMVRHPRVDYVSPGFLIGPDKDVILWGFTGGIIARLFDFLGWTRPWDQSHVQDLPPYML | -0.242
38 | HMIDENILSEEIKHYIETNNYAKDDKLPSERSLASLFNVSRALVRKSLISLVDVNYLYVKDKSGYYING | -0.52
39 | HMIDEPENLIQEDKMVNIIYDLALLEGVKTFNSSNFQSVKSNDFVYKKYKIDSLQFAKSTQFYASDINR | -0.404
40 | HMIDFDEIEILSSSKIEKIENSEYLKSSIFEKDSNQYIYRLSFENRDQLKNFKKEIEDIDQIKKIDVTY | -0.665
41 | HMIDHKVIRSFRQKRNMTLQELAQKANLSVSYLSEIELGKKQPSLETLDKLSKALNISLEGL | 0.131
42 | HMIDHLPPQRAAVLAFLQRELVAGRSPSLAEIALAFGFASRNAAQKHVQALVADGLLEQATGRSRGLRLPG | -0.235
43 | HMIDIGSKIKKLRSKKSIEIGKKYTGAMLANELGISRSYLGDIESGRTVPNEIILGKIADIFDVDIYELIG | -0.405
44 | HMIDLPEAFIQQLKEAVDVGDVTGLRELLGQLRRRYPQQSALSDEAERLLREFDFERLAQLFEGLD | -1.54
45 | HMIDNFFTIRFNYSKINEVIRLLKEFNGEIFNKNYDKNEYIIEFSIPKKDAALLISKLKNITGLTIEQ | -0.538
46 | HMIDQIAEQLQQRLAVDTAFATIQRDYPDVIANKDIELLTAIKVNQKIAEGASRASAMLESAKEVYETL | -0.329

Row | Sequence | soluble fraction (log2)
47 | HMIDRPLTLVEDYERFAGELAKITLRFMLDGRKRFNGRLAGFDEDGKIVLETSFGRFAFSFDEIDSARI | -2.08
48 | HMIDSVFASYRQVALDDELWDKVRNGAVLPKVELFEVMDGPVLFTYQSKIVAMYEPHPTKAGYIKPRKMFL | -1.52
49 | HMIDTTKILPGQEFKNMQELSVALTGQKMPAGKGYVLQQEKFKLYFSWKKITGTHKLIIDEIYEEPKT | -0.573
50 | HMIDYIKYTVDGKTYELINNWDGTWSRELEAPLVAGRYDLLLEISQNGLVTYIDSSDPRYEFYLDVI | -2.3
51 | HMIEESTVPDLKGKSQEDAIKLLEDANLKYQIVEEESKKIEAGYVISQETDANKKVNAGDTVIIHVST | -0.0907
52 | HMIEFYTMQDMFYFKLTGDNTSRERREALGKILGIGYGNATQMVSRLNNYGISKEEFSKAIEEIEKQLEA | -1.36
53 | HMIEIKNLSFSYGKKKQSVFNDFSLTLDKGSVYGLLGKNGTGKSTLLYLMTGLLRPQAGQVLYKGVDVS | 0.159
54 | HMIEKVNDYVVRFANVNGTGSASANNLFALAIYRMGVPVTPKNIFPSNIQGLPTWFEVRVSGSGYLARRG | 0.129
55 | HMIELDRTNLLGVFGPKSRPYALLMLSNGEMIKISIGDQFFGWRVYGIDEKSIQVQNGTKQEILRIP | -1.19
56 | HMIENGILELKGKTGVAQTVLRPSGKVLIDDEIYDAVALTGYIEKADKVLVTKVEATQLYVEK | -0.289
57 | HMIERLVVSPAAGVFTKKMSVENNTRIDVGHVLGHVGETEVRSPFAGILQNYIAVDGERLTAHQPIAWLRS | 0.15
58 | HMIERVLRTEEHIEAFAGEEVEAKLFAPIDGKKTLRGILGGIEDGRVILTVGDTEYRIEHAKISRLTTVFD | -0.712
59 | HMIESVMVGIKELLGDTIDQKYEKYIRLGGIPSDEVDEFNSVFSAYEKVNGNHNGKKKYDYVMNNLPIIPV | -1.54
60 | HMIETIQVPRAFNDWHEQADKTKSVFEVYAEIEASENEKLIAWVRNNQNEFAKIWLGALIPELE | -1.24
61 | HMIGHIGSAVMLNAKLRPRLPLLHVLALTQSLGERLSAAEAQPEVYRWSDPGQSRVIAEFEGGRLTRWRLE | -0.968
62 | HMIGVIVDEVDPDSSLKSGDIITEVNREVILNIDDFVGLVEQIQKTGRSSLLLKILRDKKSLWVTIQFV | 0.22
63 | HMIHQIPVNVQKIRQIIGINLNENDYLNYLAKLGFVIDEGLIIVPSFRSDVKTQNDLAEEIARV | -0.236
64 | HMIINFDAIKLTTELNKYKRHKAIPNTFFDGTYTILDVRELYNDLTPKAQKIADELIEHYNVDVK | -1.69
65 | HMIINLGELLKMLEVNKYQDAMDALDSLIEEGGSLEKIESLHEIRQHTHAMNFREAERLLSILIESEGA | -1.41
66 | HMIISPKKLEYRQRIINALGDRKMSLNELSKAMGYKGITTKLSFTVDDMIKSGVIEKVMVGAYAKLHIP | 0.22
67 | HMIIVMKRNATETQIDHVVRWVESIGYRAHRSNGTEQTVVKAVGGERGGEELKYLAALSGVEKVVPIR | 0.141
68 | HMIKDSKAAYKILGVDENATNEEIKKAYRQLVINHHPDKVSHLGEDIQRAANEKLKQINAAYDEIKKQRGF | 0.171
